Source: US20230105324A1 (Hoffmann-La Roche, published 2023)
Residue numbers refer to the chain shown, from its start. Read-outs that look alike come from different tables or passages of the source.

Columns and labels:
human VEGF121-His [1] = biological target: T1, human VEGF121-His (human, UniProt P15692 207-395); assay: SPR, VEGF121-His captured via anti-His antibody on C1 chip, Fab as analyte, single cycle kinetics
T1 construct: Captured by an anti-His antibody on the chip; not shown: His tag
T1 sequence: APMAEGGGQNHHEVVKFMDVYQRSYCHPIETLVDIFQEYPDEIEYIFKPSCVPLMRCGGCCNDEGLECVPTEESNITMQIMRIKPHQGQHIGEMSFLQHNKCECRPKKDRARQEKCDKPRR
Method: (§1) An anti-His capturing antibody (GE Healthcare 28995056) was immobilized to a Series S Sensor Chip C1 (GE Healthcare 29104990) using standard amine coupling chemistry resulting in a surface densitiy of approximately 500 resonance units (RU). As running and dilution buffer, HBS-P+ (10 mM HEPES, 150 mM NaCl pH 7.4, 0.05% Surfactant P20) was used. […] The surface was regenerated by injecting 10 mM Glycine pH 1.5 for 60s. […] Curve fitting was performed using the 1:1 Langmuir binding model within the Biacore evaluation software. To provide more robust fitting, the Multiple Rmax option was chosen for global fitting using both ligand densities.

human PDGF-BB [2] = biological target: T2, human PDGF-BB (human); assay: SPR, Fab fragment; assay format for PDGF not described
T2 construct: The ELISA text names human PDGF-BB of Cell Signaling, Cat. No 8921BF
T2 chain: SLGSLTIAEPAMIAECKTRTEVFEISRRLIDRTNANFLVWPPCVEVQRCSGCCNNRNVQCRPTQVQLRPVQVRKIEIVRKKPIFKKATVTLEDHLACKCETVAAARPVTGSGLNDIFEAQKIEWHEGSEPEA

human VEGF121-His [3] = biological target: T1, human VEGF121-His; assay: SPR, VEGF121-His captured via anti-His antibody on C1 chip, Fab as analyte, single cycle kinetics; remark: listed apart in the source
Method: as §1

human PDGF-BB [4] = biological target: T2, human PDGF-BB; assay: SPR, Fab fragment; assay format for PDGF not described
rabbit PDGF = biological target: T3, rabbit PDGF (rabbit); assay: as above
T3 construct: Printed only as rabbit PDGF

minipig PDGF = biological target: T4, minipig PDGF (minipig); assay: as above
T4 construct: Printed only as minipig PDGF; also called Minpig PDGF
T4 sequence (P20034 whole entry, looked up): SLGSPAVAEPAVIAE

cynomolgus PDGF = biological target: T5, cynomolgus PDGF (cynomolgus); assay: as above
T5 construct: Printed only as cynomolgus PDGF

human PDGF-BB [5] = biological target: T2, human PDGF-BB; assay: as above

B1: bispecific anti-VEGF/anti-PDGF-B Fab fragment P1AE2845 (Fab, V domains shown)
VH: EEQLVESGGGLVQPGGSLRLSCAASGWWFEYTDMSWVRQAPGQGLEWVGSISPSGGSTYYNTNFIGRFTISRDDSKNTLYLQMNSLRDEDTAVYYCARDEGYFDEWGQGTLVTVSS
VL: AIQMTQSPSSLSASVGDRVTITCQASYWLHKYLAWYQQKPGQAPKLLIYDASELEYGVPDRFSGSGSGTDFTLTISSLEPEDFAVYYCQNYRYHPYTFGQGTKLEIKR
notes: DutaFab: one VH/VL pair carries both paratopes; Expressed in E. coli TG1
Kd (human VEGF121-His [1]): 0.13 nM | koff (human VEGF121-His [1]): 6.54e-05 s⁻¹ | kon (human VEGF121-His [1]): 503000 M⁻¹ s⁻¹ | t½ (human VEGF121-His [1]): 177 min | Kd (human PDGF-BB [2]): 95 nM | koff (human PDGF-BB [2]): 0.0779 s⁻¹ | kon (human PDGF-BB [2]): 824000 M⁻¹ s⁻¹ | t½ (human PDGF-BB [2]): 0.1 min | Kd (human VEGF121-His [3]): 0.13 nM | koff (human VEGF121-His [3]): 6.54e-05 s⁻¹ | kon (human VEGF121-His [3]): 503000 M⁻¹ s⁻¹ | t½ (human VEGF121-His [3]): 177 min | Kd (human PDGF-BB [4]): 95 nM | koff (human PDGF-BB [4]): 0.0779 s⁻¹ | kon (human PDGF-BB [4]): 824000 M⁻¹ s⁻¹ | t½ (human PDGF-BB [4]): 0.1 min

B2: bispecific anti-VEGF/anti-PDGF-B Fab fragment RO7113083 (Fab, V domains shown)
VH: DLQLVESGGGLVKPGGSLRLSCAADGWWFGYTDMSWVRQAPGKGLEWVGSISYKGGSTYYNTKFIGRFTISRDDDTNTLYLQMNSLRAEDTAVYYCARDDGYFDTWGQGTLVTVSS
VL: AIYMHQEPSSLSASVGDRVTITCHGSYWLSNYLAWYQQKPGKAPKLLIYDGKEREHGVPSRFSGSGSHEDYTLTISSLQPEDFATYYCQQYRYHPYTFGHGTKVEIKR
notes: also called R07113083
Kd (rabbit PDGF): 0.6 nM | t½ (rabbit PDGF): 59 min | Kd (human PDGF-BB [2]): 1 nM | t½ (human PDGF-BB [2]): 90 min | Kd (minipig PDGF): 0.3 nM | t½ (minipig PDGF): 59 min | Kd (cynomolgus PDGF): 0.7 nM | t½ (cynomolgus PDGF): 53 min | Kd (human PDGF-BB [5]): 1.3 nM | t½ (human PDGF-BB [5]): 25 min

B3: bispecific anti-VEGF/anti-PDGF-B Fab fragment 28.02 (Fab, V domains shown)
VH: B2 VH with S57H, T58K, Y60L
VL: B2 VL with Y3H, H5Y
Kd (rabbit PDGF): 0.7 nM | koff (rabbit PDGF): 0.000218 s⁻¹ | kon (rabbit PDGF): 325000 M⁻¹ s⁻¹ | t½ (rabbit PDGF): 53 min | Kd (human VEGF121-His [1]): 0.007 nM | koff (human VEGF121-His [1]): 1.15e-05 s⁻¹ | kon (human VEGF121-His [1]): 1.56e+06 M⁻¹ s⁻¹ | t½ (human VEGF121-His [1]): 1010 min | Kd (minipig PDGF): 0.4 nM | koff (minipig PDGF): 0.000215 s⁻¹ | kon (minipig PDGF): 605000 M⁻¹ s⁻¹ | t½ (minipig PDGF): 54 min | Kd (human PDGF-BB [5]): 1.3 nM | koff (human PDGF-BB [5]): 0.000485 s⁻¹ | kon (human PDGF-BB [5]): 368000 M⁻¹ s⁻¹ | t½ (human PDGF-BB [5]): 24 min

B4: bispecific anti-VEGF/anti-PDGF-B Fab fragment 28.07 (Fab, V domains shown)
VH: B2 VH with S57H, T58K, Y60L
VL: B2 VL
Kd (rabbit PDGF): 0.7 nM | koff (rabbit PDGF): 0.000223 s⁻¹ | kon (rabbit PDGF): 337000 M⁻¹ s⁻¹ | t½ (rabbit PDGF): 52 min | Kd (human VEGF121-His [1]): 0.012 nM | koff (human VEGF121-His [1]): 1.73e-05 s⁻¹ | kon (human VEGF121-His [1]): 1.4e+06 M⁻¹ s⁻¹ | t½ (human VEGF121-His [1]): 668 min | Kd (minipig PDGF): 0.3 nM | koff (minipig PDGF): 0.000225 s⁻¹ | kon (minipig PDGF): 646000 M⁻¹ s⁻¹ | t½ (minipig PDGF): 51 min | Kd (cynomolgus PDGF): 0.6 nM | koff (cynomolgus PDGF): 0.000215 s⁻¹ | kon (cynomolgus PDGF): 336000 M⁻¹ s⁻¹ | t½ (cynomolgus PDGF): 54 min | Kd (human PDGF-BB [5]): 1.4 nM | koff (human PDGF-BB [5]): 0.000483 s⁻¹ | kon (human PDGF-BB [5]): 357000 M⁻¹ s⁻¹ | t½ (human PDGF-BB [5]): 24 min

B5: bispecific anti-VEGF/anti-PDGF-B Fab fragment P1AA9124 (Fab, V domains shown)
VH: B2 VH
VL: B2 VL with Y3Q, H5T, E7S, H100Q, V104L
Kd (rabbit PDGF): 0.7 nM | t½ (rabbit PDGF): 48 min | Kd (human PDGF-BB [2]): 1 nM | t½ (human PDGF-BB [2]): 44 min | Kd (minipig PDGF): 0.4 nM | t½ (minipig PDGF): 48 min | Kd (cynomolgus PDGF): 0.6 nM | t½ (cynomolgus PDGF): 52 min | t½ (human PDGF-BB [5]): 24 min

B6: bispecific anti-VEGF/anti-PDGF-B Fab fragment 28.01 (Fab, V domains shown)
VH: B2 VH
VL: B2 VL with Y3H, H5Y
Kd (rabbit PDGF): 0.6 nM | t½ (rabbit PDGF): 67 min | Kd (minipig PDGF): 0.3 nM | t½ (minipig PDGF): 69 min | Kd (cynomolgus PDGF): 0.6 nM | t½ (cynomolgus PDGF): 54 min | Kd (human PDGF-BB [5]): 1.3 nM | t½ (human PDGF-BB [5]): 26 min
